From the supplement of paper PMC9170038

Tested on: MS2 coat protein
Experiment: apparent KD of MS2 coat protein; designed switch direction (-1 OFF switch, 1 ON switch): 1; higher = weaker reporter binding
Method in brief: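 For each design, the apparent KD is the median over clusters of curves fitted to normalised cluster fluorescence. Clusters held RNA switches with common flanks, transcribed on Illumina chips by stalled E. coli RNA polymerase. These were titrated with SNAP-549-labelled MS2 coat protein, doubling from 0.7 or 1.5 nM to 3 µM, without input, with 200 uM small-molecule ligand, or with an oligonucleotide input.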

[1] = input ligand: microRNA oligo, concentration not stated
[2] = Eterna round: R95, input ligand: FMN 200 uM
[3] = Eterna round: R95, input ligand: microRNA oligo, concentration not stated
[4] = Eterna round: R95, input ligand: none

Row | Sequence | apparent KD of MS2 coat protein (input ligand: FMN 200 uM) | apparent KD of MS2 coat protein [1] | apparent KD of MS2 coat protein (input ligand: none) | apparent KD of MS2 coat protein [2] | apparent KD of MS2 coat protein [3] | apparent KD of MS2 coat protein [4]
1 | AAGAAACAUGAGGAUCACCCAUGUCGAGAGAGACGAGGAUAUCUGAAUCGAUUAGAUUACGGAGAAGGCGUGAAAA [Same State 1.2 (Same State of Confusion2 - minimal change )] (Eterna round: R96, puzzle: Same State 1) | 22.1 nM | 22 nM | 27 nM |  |  | 
2 | AAGAAACAUGAGGAUCACCCAUGUGAUAAUAUGGGAGGAUAUACAAAGACGAAAGUCGAAGUAGAAGGCCUAUGAA [Garnet 43] (Eterna round: R96, puzzle: Same State 1) | 46.4 nM | 50.9 nM | 68.7 nM |  |  | 
3 | AAGUAACAUGAGGAUCACCCAUGUGAGGUGAGCGUAGGAUAUCGAGAAGGAAGGGUGGAGCGAGAAGGACGAGAGG [JR_SS1_Sub0100] (puzzle: Same State 1) |  |  |  | 191 nM | 401 nM | 270 nM
4 | AAGUUAAGCUUUUUGUUCUGCCUAUUCCAACAUGAGGAUCACCCAUGUAGUCUGACGAUUGUGUGUGUAGUUGAGAU [JR_SHM208A_Sub028] (puzzle: Sensor for hsa-mir-208a) |  |  |  | 51.8 nM | 63.5 nM | 57.9 nM
5 | AAGUUACUAUCUCAGGAUAUCAUGUCAAAGACAUGAGGAUCACCCAUGUACCAGGAAACUGGUUAUGAGAAGGGAGAUAGUAACU [Mat - Same State 2 - Mod - D54] (puzzle: Same State 2) |  |  |  | 156 nM | 204 nM | 819 nM
6 | AAUCGUUUAAUAGGAUAUCGCUAUACAUGAGGAUCACCCAUGUUUACCACGCUGGUUUUUCGUACCGAGAAGGAUUCUGAUGAU [JL JR sub007 mod 8] (Eterna round: R96, puzzle: Same State NG 2) | 36.6 nM | 26.5 nM | 39.9 nM |  |  | 
7 | AAUCGUUUGAUAGGAUAUCGCUAUACAUGAGGAUCACCCAUGUUUACCACACUGGUUUUUCGUACCGAGAAGGAUUCUGAUGAU [JL JR sub007 mod 9] (Eterna round: R96, puzzle: Same State NG 2) | 40.2 nM | 33.1 nM | 43.5 nM |  |  | 
8 | AAUUAAGAUCAAGGAUAUCACGUCGAAUAGACGUGAGAAGGUGAUAAUUACAUGAGGAUCACCCAUGUAUAACAUGAAUUAAUU [SSNG1/9-B1] (Eterna round: R96, puzzle: Same State NG 1) | 30 nM | 24.8 nM | 38 nM |  |  | 
9 | AAUUAAUUAAUACAUGAGGAUCACCCAUGUAAUUAUUAGAUCAAGGAUAUCAGCUCGUUUAGAGCUGAGAAGGUGAUCACAUGU [SSNG3/18-A3] (Eterna round: R96, puzzle: Same State NG 3) |  | 211 nM |  |  |  | 
10 | AAUUCACGAGCACAGGAUAUGCUUGCCAACACAUGAGGAUCACCCAUGUCGGGCUACGAAUAAGAGCAGAAGGGUGACUCAUGAU [Atesusgela] (puzzle: Same State 2) |  |  |  | 16.8 nM | 19.2 nM | 13.9 nM
11 | AAUUGUUUCUGAGGAUAUCAGUAGUAUGCCAAUUGAGAAGGCAGUACAUGAGGAUCACCCAUGUUGUGGUUUGAUAGAAUGAUA [JR_SSNG1_Sub002] (Eterna round: R96, puzzle: Same State NG 1) | 170 nM | 143 nM | 181 nM |  |  | 
12 | ACAAGCUUUUUGCUCCUCUUAUGUCCGAAACAUGAGGAUCACCCAUGUAUAGAUUGUGUGUUGUUGUAGAUGCAAGA [JR_SHM208A_Sub061] (Eterna round: R96, puzzle: Sensor for hsa-mir-208a) | 73.8 nM | 63.4 nM | 74.1 nM |  |  | 
13 | ACAAGCUUUUUGCUCCUCUUAUGUCCGAAACAUGAGGAUCACCCAUGUAUAGAUUGUGUGUUGUUGUAGAUGCAAGA [JR_SHM208A_Sub061] (puzzle: Sensor for hsa-mir-208a) |  |  |  | 69.3 nM | 72 nM | 71.8 nM
14 | ACAUAGGUUUCAGGAUAUGGGUAAAUUCCCAACAUGAGGAUCACCCAUGUCCGUAGGGAUAACAUCCAGAAGGGAAGCCACAUA [MOD Eternabot Solution 1 (Score 87.5)] (Eterna round: R96, puzzle: Same State NG 2) | 89.3 nM | 100 nM | 59.4 nM |  |  | 
15 | ACAUGAAAUUUAGGAUAUUUUGUACCUACAUGUGACAUGAGGAUCACCCAUGUGGUAAGUAUGAGAAAGAAGGAAAAGAUAUGU [Equivalence 9 - Jieux - Same State NG 2] (Eterna round: R96, puzzle: Same State NG 2) | 71.8 nM | 61.6 nM | 70.9 nM |  |  | 
16 | ACAUGAGACUUAGGAUAUCUUGUACCUACAUGUGACAUGAGGAUCACCCAUGUGGUAAGUAUGAGAGAGAAGGAAGAGAUAUGU [Equivalence 37 - Jieux - Same State NG 2] (Eterna round: R96, puzzle: Same State NG 2) | 19.7 nM | 14.4 nM | 23.2 nM |  |  | 
17 | ACAUGAGACUUAGGAUAUGUUGUACCUACAUGUGACAUGAGGAUCACCCAUGUGGUAAGUAUGAGGCAGAAGGGAGAGAUAUGU [Equivalence 47 - Jieux - Same State NG 2] (Eterna round: R96, puzzle: Same State NG 2) | 54.3 nM | 85.6 nM | 77.7 nM |  |  | 
18 | ACAUGAGGAGCAGGAUAUCGCAUGAGGAUCACCCGAGAAGGGCUCACACAUGAGGAUCACCCAUGUAUCACCCAUGUAUGUUGA [twils 1] (Eterna round: R96, puzzle: Same State NG 1) | 484 nM | 105 nM | 498 nM |  |  | 
19 | ACGCAGCUGGGUGAGGAUAUUGGUGGUACAACAUGAGGAUCACCCAUGUCCGAAGCUCGGACCCUCGAGAAGGCGCCCGGCUGCG [Soinraesar Omei Mod 5] (puzzle: Same State 2) |  |  |  | 122 nM | 17.2 nM | 62 nM
20 | ACGCUAAAUGGAGGAUAUGGAGCCUUAUUGGCUCCAGAAGGUCAAAACAUGAGGAUCACCCAUGUGCGGUGGUCUAAUGACCAC [Eli NG1ss - 47] (Eterna round: R96, puzzle: Same State NG 1) | 68 nM | 99.2 nM | 169 nM |  |  | 
21 | AGAAAACAUGAGGAUCACCCAUGUAUAGUGAAUACAGGAUAUCACCGGCGGAAUAGCCAGUGAGAAGGGUGAUCGC [Aarusxe] (puzzle: Same State 1) |  |  |  | 71.5 nM | 11.5 nM | 41 nM
22 | AGAACAUGACGAGGAUAUGGAACAUGAGGAUCACCCAUGUAUGUUCCAUAACGCGAAUAAAGAAUCCAGAAGGCGUCGUGAAGA [Mat - Same State NG 2 - JL mod - D32] (Eterna round: R96, puzzle: Same State NG 2) | 34.5 nM | 116 nM | 147 nM |  |  | 
